Test results from patent publication US20110212106A1, “HIV-1 NE[…] USES THEREOF” (priority 2010, published 2011).
Where two headings read alike, the source gives them in different places.

How the values were obtained:
gp120 binding to sCD4 = conditions: inhibition of sCD4 binding
Description: Shown is mean±SD of triplicates.
The ability of mAbs to inhibit binding of sCD4 to gp120 or gp140 was evaluated by ELISA. Serial dilutions of mAbs were pre-incubated with gp120 (or gp140) and added to plates pre-coated with sCD4. After 1 h plates were washed and incubated with sheep polyclonal antibody D7324 (Aalto Bio-Reagents) followed by washing, incubation with AP-conjugated rabbit anti-sheep IgG antibody (Abcam, Cambridge, UK), extensive washing and detection using p-NPP (Sigma) as substrate.

HIV-1 isolates = assay: Neutralization of HIV-1 isolates (TZMbl-based or HOS-based assay, not specified); format: cell-based
Description: FIG. 5. Epitope mapping of V3-specific mAbs by linear and circular peptide scanning. (A) Eight gp120-specific mAbs were mapped with linear and cyclic peptides to the V3 region. Shown is the HIV-1 isolate used for the mapping, the minimal epitope, the binding breadth expressed as number of recombinant Env proteins out of the 16 tested, and the fraction of isolates neutralized in the HOS and TZMbl-based neutralization assays, respectively. (B) Alignment of the region corresponding to the epitope recognized by mAb HGN194 in 44 HIV-1 isolates. Co-receptor binding residues are bold. Highlighted in grey are the isolates neutralized by HGN194 either in the TZMbl-based or in the HOS-based assays. […]
To measure the neutralization activity of the isolated mAbs, luciferase-encoding virions pseudotyped with the desired HIV-1 Env proteins were used in a single-cycle infectivity assay, as previously described (Gorny M K, et al. (2002) J Virol 76: 9035-9045). […] The cells were then lysed with Britelite reagent (Perkin-Elmer) and the relative light units in the cell lysates were determined on a luminometer microplate reader (Veritas, Turner Biosystems). […]

[1] = test system: HIV-1 pseudoviruses in HOS-CD4-CCR5 cells
Description: To measure the neutralization activity of the isolated mAbs, luciferase-encoding virions pseudotyped with the desired HIV-1 Env proteins were used in a single-cycle infectivity assay, as previously described (Gorny M K, et al. (2002) J Virol 76: 9035-9045). Briefly, appropriate dilutions of the virion-containing culture supernatants were pre-incubated at 37° C. for 1 h with mAbs at various concentrations. The virus-mAb mixtures were added to HOS-CD4-CCR5 cells and incubated for 3 days at 37° C. A similar protocol was used for supernatants screening using TZM-bl cells (Li M, et al. (2006) J Virol 80: 11776-11790). The cells were then lysed with Britelite reagent (Perkin-Elmer) and the relative light units in the cell lysates were determined on a luminometer microplate reader (Veritas, Turner Biosystems). The 50% inhibitory dose (IC50) was defined as the sample concentration at which relative luminescence units were reduced 50% compared to virus control wells.
The neutralizing activity of the mAbs was measured using 20 pseudotyped HIV-1 primary isolate envs characterized by different sensitivity to neutralization (Li M, et al. (2005) J Virol 79: 10108-10125; Li M, et al. (2006) J Virol 80: 11776-11790). The mAbs were tested at a fixed concentration (100 μg/ml) in the luciferase based neutralization assay using HOS-CD4.R5 as target cells.

[2] = test system: HIV-1 pseudoviruses in TZM-bl cells
[3] = In vivo administration in macaques
Description: Specificity: V3 loop. Pepscan analysis identified the epitope which is very conserved in the tip of V3 of gp120. It includes 4 residues involved in co-receptor (CCR5 or CXCR4) binding. Also HGN194 has accessibility problems (Fab fragment and single chain antibody may work better). Neutralizes most Tier 1 isolates (they are more sensitive isolates since the epitope is more accessible).

B1: HGN194: human mAb binding the V3 crown of gp120; VH SEQ ID NO: 45, VL SEQ ID NO: 46 (antibody, listed as Homo sapiens, V domains shown)
VH: EVQLVQSGAEVKKPGESLKISCYGSGYNFNDYWIGWVRQMPGKGLEWMGMIYPDDSDTKYSAAFEGQVTLSADKSISTAYLQWTSLRASDTATYYCARLDGDYADFDSWGQGTLVTVSS
VL: QSVLTQPPSVSAAPGQKVTISCSGTNSNLGDKFVSWYQQLPGTAPRLLIYDNDKRPSGIPDRFSGSKSGASATLAITGLQTGDEADYYCGTWDNSLSALFGGGTKLTVL
gp120 binding to sCD4
  Cross-competition with: sCD4: − (−, <50% inhibition)
HIV-1 isolates; isolate 93MW965.26
  IC50: < 0.02 µg/mL
HIV-1 isolates; isolates Du422.1, ZM197M.PB7 and Du172.17
  neutralization: not neutralized
[1]; HOS-based assay, isolates neutralized/isolates tested
  Neutralization HOS (number of isolates neutralized): 11/20
[1]; mAb at fixed concentration 100 μg/ml
  pseudoviruses neutralized out of the 20 pseudoviruses: 11
[1]; neutralized/tested
  pseudoviruses neutralized in the HOS-based assay: 11/20
gp120; inhibition of biotinylated mAb 2G12 binding to immobilized gp120
  Cross-competition with: 2G12: − (−, <50% inhibition)
gp120; inhibition of biotinylated mAb HGA9 binding to immobilized gp120
  Cross-competition with: HGA9: + (+,90-100% inhibition)
gp120; inhibition of biotinylated mAb HJ16 binding to immobilized gp120
  Cross-competition with: HJ16: − (−, <50% inhibition)
gp120; inhibition of biotinylated mAb HR10 binding to immobilized gp120
  Cross-competition with: HR10: + (+,90-100% inhibition)
gp120; inhibition of biotinylated mAb b12 binding to immobilized gp120
  Cross-competition with: b12: − (−, <50% inhibition)
[2]; All (92)
  Percentage of HIV-1 isolates neutralized: 21%
[2]; TZM-bl based assay, isolates neutralized/isolates tested
  Neutralization TZM-bl (number of isolates neutralized): 19/92
[2]; Tier 1 (10)
  Percentage of HIV-1 isolates neutralized: 100%
[2]; Tier 1 + Tier 2, Clade A (8)
  Percentage of HIV-1 isolates neutralized: 38%
[2]; Tier 1 + Tier 2, Clade AD (1)
  Percentage of HIV-1 isolates neutralized: 0%
[2]; Tier 1 + Tier 2, Clade AG (16)
  Percentage of HIV-1 isolates neutralized: 0%
[2]; Tier 1 + Tier 2, Clade B (29)
  Percentage of HIV-1 isolates neutralized: 24%
[2]; Tier 1 + Tier 2, Clade BC (11)
  Percentage of HIV-1 isolates neutralized: 0%
[2]; Tier 1 + Tier 2, Clade C (26)
  Percentage of HIV-1 isolates neutralized: 23%
[2]; Tier 1 + Tier 2, Clade G (1)
  Percentage of HIV-1 isolates neutralized: 0%
[2]; Tier 2 (82)
  Percentage of HIV-1 isolates neutralized: 11%
[2]; Tier 2, Clade A (5)
  Percentage of HIV-1 isolates neutralized: 20%
[2]; Tier 2, Clade AD (1)
  Percentage of HIV-1 isolates neutralized: 0%
[2]; Tier 2, Clade AG (16)
  Percentage of HIV-1 isolates neutralized: 0%
[2]; Tier 2, Clade B (24)
  Percentage of HIV-1 isolates neutralized: 8%
[2]; Tier 2, Clade BC (11)
  Percentage of HIV-1 isolates neutralized: 0%
[2]; Tier 2, Clade C (24)
  Percentage of HIV-1 isolates neutralized: 17%
[2]; Tier 2, Clade G (1)
  Percentage of HIV-1 isolates neutralized: 0%
[2]; neutralized/tested
  pseudoviruses neutralized in the TZM-bl based assay: 19/92
[3]
  efficacy in macaques: complete protection
